The target in this test is VLDLRLBD-Fc fusion protein (human, UniProt P98155-1 31-355). Briefly: BLI; […] (2.6 µM) […]; kinetic buffer with 2 mM CaCl2. As to conditions: both partners purified.

B1: receptor-associated protein (RAP) (natural protein, human, UniProt P30533 35-353, looked up)
chain: YSREKNQPKPSPKRESGEEFRMEKLNQLWEKAQRLHLPPVRLAELHADLKIQERDELAWKKLKLDGLDEDGEKEARLIRNLNVILAKYGLDGKKDARQVTSNSLSGTQEDGLDDPRLEKLWHKAKTSGKFSGEELDKLWREFLHHKEKVHEYNVLLETLSRTEEIHENVISPSDLSDIKGSVLHSRHTELKEKLRSINQGLDRLRRVSHQGYSTEAEFEEPRVIDLWDLAQSANLTDKELEAFREELKHFEAKIEKHNHYQKQLEIAHEKLRHAESVGDGERVSRSREKHALLEGRTKELGYTVKKHLQDLSGRISRAR
On to B1, for which the binding result was “binds”.
